Results published in paper doi:10.1101/452482 (bioRxiv, 2018).
Where two headings read alike, the source gives them in different places. Each block holds one molecule with its values, some of them ahead of it. Ends that are not written are not given here. fluorescein = fluorescein label at the N-terminus of the peptide

Assays:
[1] = biological target: N-CoRNID labelled with Atto647N (mouse) (UniProt Q60974); assay: MST
[2] = biological target: N-CoRNID labelled with Atto647N (mouse) (UniProt Q60974); assay: MST; remark: listed apart in the source
[3] = biological target: N-CoRNID, nuclear receptor interaction domain of N-CoR (Gln2059 to Glu2325) (mouse) (UniProt Q60974); assay: SAXS
Sequence of N-CoRNID, nuclear receptor interaction domain of N-CoR (Gln2059 to Glu2325) (mouse) (Q60974 2059-2325): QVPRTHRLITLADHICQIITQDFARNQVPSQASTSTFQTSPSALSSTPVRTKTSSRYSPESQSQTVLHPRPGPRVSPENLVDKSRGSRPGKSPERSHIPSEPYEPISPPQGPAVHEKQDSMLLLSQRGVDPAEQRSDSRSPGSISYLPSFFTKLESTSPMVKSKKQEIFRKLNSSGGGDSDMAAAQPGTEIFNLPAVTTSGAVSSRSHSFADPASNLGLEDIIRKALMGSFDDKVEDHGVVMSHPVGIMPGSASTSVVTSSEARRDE

[4] = biological target: N-CoRNID, nuclear receptor interaction domain of N-CoR (Gln2059 to Glu2325) (mouse) (UniProt Q60974); assay: AUC + other: RPLC-UV/MS
[5] = biological target: fluorescent peptide CoRNR1 of N-CoR; assay: fluorescence polarisation
[6] = biological target: fluorescent peptide CoRNR2 of N-CoR; assay: fluorescence polarisation
[7] = biological target: T1, RXR (RXRα ligand-binding domain) (mouse, UniProt P28700 227-467); assay: fluorescence polarisation
T1 sequence (looked up): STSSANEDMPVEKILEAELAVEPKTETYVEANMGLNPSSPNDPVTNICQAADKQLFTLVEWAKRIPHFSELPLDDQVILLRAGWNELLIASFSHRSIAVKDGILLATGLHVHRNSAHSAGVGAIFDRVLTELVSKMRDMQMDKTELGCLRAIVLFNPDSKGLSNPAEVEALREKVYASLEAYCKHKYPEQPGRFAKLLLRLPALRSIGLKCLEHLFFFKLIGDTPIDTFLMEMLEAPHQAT

[8] = biological target: T1, RXR (RXRα ligand-binding domain); assay: AUC + other: RPLC-UV/MS

Sequence of N-CoRNID labelled with Atto647N (mouse) (Q60974 2059-2325): as the sequence (Q60974 2059-2325) above

Kd [1]: 0.21 µM | Kd [2]: 8.6 µM | population of unbound species [3]: 51% | stoichiometry N [4]: 1 | Kd [5]: 1.68 µM | Kd [6]: 1.47 µM
Molecule: RXR/RAR heterodimer (mRXRα/hRARα), ligand-binding domains (from UniProt P28700 1-467; P10276 1-462) (complex)

Kd [1]: 4.42 µM
Molecule: RXR/RARI396E heterodimer (mRXRα/hRARαI396E) (from UniProt P28700 1-467; P10276 1-462) (complex)

Kd [7]: 22.5 µM
Molecule: fluorescein-DPASNLGLEDIIRKALMGSFD [fluorescent peptide CoRNR2 of N-CoR]

stoichiometry N [8]: 1
B1: RAR (RARα ligand-binding domain) (domain or fragment, human, UniProt P10276 176-421, looked up)
chain: ESYTLTPEVGELIEKVRKAHQETFPALCQLGKYTTNNSSEQRVSLDIDLWDKFSELSTKCIIKTVEFAKQLPGFTTLTIADQITLLKAACLDILILRICTRYTPEQDTMTFSDGLTLNRTQMHNAGFGPLTDLVFAFANQLLPLEMDDAETGLLSAICLICGDRQDLEQPDRVDMLQEPLLEALKVYVRKRRPSRPHMFPKMLMKITDLRSISAKGAERVITLKMEIPGSMPPLIQEMLENSEGLD
